Data: the supplement of paper PMC7125110
± gives the standard error. Fewer inactive variants are shown than the library holds.

B1: glmS ribozyme (parent)
chain: AUAAAAGCGCCAGAACUACAGAAAUGUAGUUGACGAGGAGGAGGUUUAUCGAAUUUUCGGCGGAUGCCUCCAAA

How the values were obtained:
Conditions in all cases: with glucosamine-6-phosphate
[1] = variants of: B1; experiment: self-cleavage kobs at 40 uM GlcN6P; higher = faster cleavage; RNA array
Method in brief: (§1)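 Tiles of sequenced MiSeq chips were imaged over ~14 h at 37 °C. On them, barcoded ribozyme variants had been transcribed in situ by E. coli RNA polymerase and were tracked via a hybridised Cy3 probe while glucosamine-6-phosphate (40 μM to 10 mM) in HEPES/KCl/Mg(OAc)2 buffer flowed in. Per-tile medians, normalised to baseline and to non-cleaving reference variants, were fit to one- or two-exponential decays for kobs, and weighted Michaelis–Menten fits gave kcat and KM.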

[2] = variants of: B1; experiment: self-cleavage kobs at 10000 uM GlcN6P; higher = faster cleavage; RNA array
Method in brief: as §1

[3] = variants of: B1; experiment: self-cleavage kobs at 640 uM GlcN6P; higher = faster cleavage; RNA array
Method in brief: as §1

[4] = variants of: B1; experiment: self-cleavage kobs at 160 uM GlcN6P; higher = faster cleavage; RNA array
Method in brief: as §1

[5] = variants of: B1; experiment: self-cleavage kobs at 2500 uM GlcN6P; higher = faster cleavage; RNA array
Method in brief: as §1

Variant	self-cleavage kobs at 40 uM GlcN6P [1] [s⁻¹]	self-cleavage kobs at 10000 uM GlcN6P [2] [s⁻¹]	self-cleavage kobs at 640 uM GlcN6P [3] [s⁻¹]	self-cleavage kobs at 160 uM GlcN6P [4] [s⁻¹]	self-cleavage kobs at 2500 uM GlcN6P [5] [s⁻¹]
AUAAAAGCGCCAGAACUACAGAAAUGUAGUUUACGAGGUGGAGGUUUAUCGAAUUUUCGACGGAUGUCUCCAAA [G32U A39U G60A C67U]	< 1e-05	< 1e-05	–	–	–
AUAAAAGCGCCAGAACUACAGAAAUGUAGUUUACGAGCAGGAGGUUUAUCGAAUAUUCGGCGGAUGCCUCCAAA [G32U G38C U55A]	< 1e-05	< 1e-05	< 1e-05	–	–
AUAAAAGCGCCAGAACUACAGAAAUGUAGUUUACGAGGAGGACGUUUAUCGAAUUUUCGGCGGAUGCCUCCAAA [G32U G43C]	< 1e-05	–	< 1e-05	< 1e-05	< 1e-05
AUAAAAGCGCCAGAACUACAGAAAUGUAGUUUACGAGGAGGAUUUUUAUCGAAUUUUCGACGGAUGCCUCCAAA [G32U G43U G44U G60A]	< 1e-05	–	< 1e-05	–	< 1e-05
AUAAAAGCGCCAGAACUACAGAAAUGUAGUUUACGAGGAGGAGGUUUAUCGCAUUUUCGGCGGAUGCCUCCAAA [G32U A52C]	< 1e-05	< 1e-05	< 1e-05	–	–
AUAAAAGCGCCAGAACUACAGAAAUGUAGUUUACGGGGAGGAGGCUUAUCGAAUUUUCGGCGGAUGCGUCCAAA [G32U A36G U45C C68G]	< 1e-05	–	–	–	–
AUAAAAGCGCCAGAACUACAGAAAUGUAGUUGCCGAGGAGGAGGUUUAUCGAAUUUUCGGCGGCUGCCUCCAAA [A33C A64C]	< 1e-05	< 1e-05	< 1e-05	< 1e-05	< 1e-05
AUAAAAGCGCCAGAACUACAGAAAUGUAGUUUAUGAGGAGGCGGUUUAUCGAAUUUUCGGCGGAUGCCUCCAAA [G32U C34U A42C]	< 1e-05	–	–	–	< 1e-05
AUAAAAGCGCCAGAACUACAGAAAUGUAGUUUACGAGAAGGAGGUUUAUCGAAUUUUCGGCGGAUGCCUCCAAA [G32U G38A]	< 1e-05	< 1e-05	–	–	–
AUAAAAGCGCCAGAACUACAGAAAUGUAGUUCACGAGGAGGAGGUUUAUCGAAUUUUCGGCGGAUGCCGCCAAA [G32C U69G]	0.000189 ± 3.1e-05	9.57e-05 ± 1.1e-05	0.000383 ± 8e-05	–	0.000111 ± 2.5e-05
AUAAAAGCGCCAGAACUACAGAAAUGUAGUUCACGAGGAGGAGGUUGAUCGAAUGUUCGGCGGACGCCGCCAAA [G32C U47G U55G U65C U69G]	0.000245 ± 8.5e-05	0.000357 ± 9.5e-05	–	–	–
AUAAAAGCGCCAGAACUACAGAAAUGUAGUUUACGAGGAGGAGGUUUAUCGAAUUAUCGGGGGAUGACUCCAAA [G32U U56A C61G C67A]	7.99e-05 ± 3e-05	–	–	–	–
AUAAAAGCGCCAGAACUACAGAAAUGUAGUUUACGAGGAGGAGGUUUAUCGAAUUUUCUGCGGAUGCCUCGAAA [G32U G59U C71G]	< 1e-05	–	< 1e-05	–	–
AUAAAAGCGCCAGAACUACAGAAAUGUAGUUUACGUGGAGGAGGUGUUUCGAAUUCUCGUUGGAUGCCUCCAAA [G32U A36U U46G A48U U56C G60U C61U]	< 1e-05	< 1e-05	< 1e-05	–	–
AUAAAAGCGCCAGAACUACAGAAAUGUAGUUUACGAGGAGGAGGUUUAGCGACUUUUCGGCGGAUGCCUCCAAA [G32U U49G A53C]	< 1e-05	–	–	–	–
AUAAAAGCGCCAGAACUACAGAAAUGUAGUUUACGAGGAGGAGGUGUAUCGAAUUUUCGGUGGAUGCCUCCAAA [G32U U46G C61U]	< 1e-05	< 1e-05	–	–	< 1e-05
AUAAAAGCGCCAGAACUACAGAAAUGUAGUUCACGAGGAGGAGGUUUAGCGAAUUUUCGGCGGAUGCCUCCAAA [G32C U49G]	< 1e-05	–	< 1e-05	< 1e-05	–
AUAAAAGCGCCAGAACUACAGAAAUGUAGUUUACGAGGAGGAGUUUUAUCGAAUUUUCGGCGGAUGCCUCCAAA [G32U G44U]	< 1e-05	–	< 1e-05	< 1e-05	–
AUAAAAGCGCCAGAACUACAGAAAUGUAGUUUACGAGGAGGAGGUCUAUCUAAUUUUCGGCGGAUGCCUCCAAA [G32U U46C G51U]	< 1e-05	< 1e-05	–	–	–
AUAAAAGCGCCAGAACUACAGAAAUGUAGUUUCCGAGGAGGAGGGUUAUCGAAUUUUCGGCGGAAGCCUCCAAA [G32U A33C U45G U65A]	< 1e-05	< 1e-05	< 1e-05	–	< 1e-05
AUAAAAGCGCCAGAACUACAGAAAUGUAGUUUACGGGGAGGAGGUUUAUCGAAUUUUCAGCGGAUGCCUCCAAA [G32U A36G G59A]	< 1e-05	< 1e-05	–	–	< 1e-05
AUAAAAGCGCCAGAACUACAGAAAUGUAGUUUAUGAGGAGGAGGUUUAUCGAAUUUUCGGCGGAUGCCUCCAAA [G32U C34U]	< 1e-05	< 1e-05	< 1e-05	< 1e-05	–
AUAAAAGCGCCAGAACUACAGAAAUGUAGUUCACGAGGAGGAGGUUUAUCGAAUUCUCGGCGGAUGCCUCCAAA [G32C U56C]	< 1e-05	–	< 1e-05	< 1e-05	–
AUAAAAGCGCCAGAACUACAGAAAUGUAGUUUACGAGGAGGAGUAUUAUCGAAUUUUCGGCGGAUGCCUCCAAA [G32U G44U U45A]	< 1e-05	–	–	–	–
AUAAAAGCGCCAGAACUACAGAAAUGUAGUUUACGAGGAGGAGGUUUAUCGGAUUUUAGGCGGAUGCCUACAAA [G32U A52G C58A C70A]	5.29e-05 ± 2.5e-05	4.31e-05 ± 2e-05	–	–	–
AUAAAAGCGCCAGAACUACAGAAAUGUAGUUUACUAGGAGGAGGUUUAUCGAAUUUUCGGCGGAUGCCUCCAAA [G32U G35U]	< 1e-05	< 1e-05	< 1e-05	< 1e-05	< 1e-05
AUAAAAGCGCCAGAACUACAGAAAUGUAGUUUACGAGGAGGAGGUUUAUCGAAUUUUCGGCUGAUGCCUCCAAA [G32U G62U]	< 1e-05	< 1e-05	< 1e-05	< 1e-05	< 1e-05
AUAAAAGCGCCAGAACUACAGAAAUGUAGUUUACGAGGAGGAGGUUUAUGGAAUUUUCGGCGGAUGCGUCCAAA [G32U C50G C68G]	0.00012 ± 2.5e-05	9.96e-05 ± 1.7e-05	–	–	–
